Experimental data from the RNAGym collection of RNA variant scans (doi:10.1073/pnas.2313332121).
This sample holds only a part of the variants without activity.

B1: TPR 5TU (parent)
chain: GGAUCUUCUCGAUCUAACAAAAAAGACAAAUCUGCCACAAAGCUUGAGAGCAUCUUCGGAUGCAGAGGCGGCAGCCUUCGGUGGCGCGAUAGCGCCAACGUUCUCAACUAUGACACGCAAAACGCGUGCUCCGUUGAAUGGAGUUUAUCAUG

Variants of: B1
Experiment: polymerase ribozyme fitness, log enrichment relative to wild type (log ratio); higher = more active; in vitro selection for triplet polymerase activity
How it was run: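 Libraries of mutants in each subunit of a heterodimeric triplet polymerase ribozyme were generated by PCR and transcribed. In triplicate, each went through one in vitro selection round: annealing with biotinylated primer, partner subunit and triplets; frozen incubation at −7 °C; gel excision of extended constructs; streptavidin-bead capture; RT-PCR. Fitness, taken from Illumina sequencing of input and output libraries, is the logarithm of a genotype's enrichment over wild-type enrichment, averaged across replicates with inverse-variance weights. The logarithm is base 2, and genotypes needed ≥10 input reads and ≥1 read per output to be kept.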

Going from C87A U90C G117C to A89U A91U C93U C95A, the “polymerase ribozyme fitness (log ratio)” value falls from -3.77 to no more than -4.2.

First: G88C A89C C95U
Second: A89C U130A
The “polymerase ribozyme fitness (log ratio)” value of the first is lower: no more than -4.2 for the first, -3.07 for the second.

Going from C87U U151G to A91C C108G A120U, the “polymerase ribozyme fitness (log ratio)” value falls from -3.96 to no more than -4.2.

Going from A89G G124U to U90C G92A C123A G126A A147C, the “polymerase ribozyme fitness (log ratio)” value falls from -1.93 to no more than -4.2.

Going from A89U G94C A98G A150G to G88U A91G, the “polymerase ribozyme fitness (log ratio)” value falls from -2.68 to no more than -4.2.

A91C A142C and C87A U144C cannot be ordered by “polymerase ribozyme fitness (log ratio)” value: no more than -4.2 for the first, no more than -4.2 for the second.

Going from C87A U144G to A91U G94A G128U, the “polymerase ribozyme fitness (log ratio)” value falls from -3.92 to no more than -4.2.

First: C87U G92C
Second: A89U A91U C116U
The “polymerase ribozyme fitness (log ratio)” value of the first is higher: -0.38 for the first, no more than -4.2 for the second.

Compared with G88U U130A A147C, C87A G92U is higher in “polymerase ribozyme fitness (log ratio)” value: no more than -4.2 for the first, 0.159 for the second.

First: A91C C96A A120U A122C G143U
Second: C87G U139A
The “polymerase ribozyme fitness (log ratio)” value of the first is higher: -4.07 for the first, no more than -4.2 for the second.

First: G88U A106G
Second: G86U G88U G94U A150U
The “polymerase ribozyme fitness (log ratio)” value of the first is higher: -3.91 for the first, no more than -4.2 for the second.

First: A91C G126A
Second: C87U A89G
The “polymerase ribozyme fitness (log ratio)” value of the first is lower: -4.03 for the first, -3.41 for the second.

Going from C87U G152C to G88A A106G, the “polymerase ribozyme fitness (log ratio)” value falls from -3.17 to -3.55.

Going from C87U A121U to G88C A97C A110G, the “polymerase ribozyme fitness (log ratio)” value falls from -0.38 to no more than -4.2.

Compared with G88A U127G C129U, A89C C105U is higher in “polymerase ribozyme fitness (log ratio)” value: no more than -4.2 for the first, 0.174 for the second.

Compared with A91G A98U, C87U U148A is higher in “polymerase ribozyme fitness (log ratio)” value: -3.95 for the first, -3.62 for the second.

Compared with C87U C96G A113U, A89G A98G G143C is lower in “polymerase ribozyme fitness (log ratio)” value: -2.85 for the first, -3.66 for the second.

A89U C93U C125U U127A A142U C149U and C87A G133C U145C U146C cannot be ordered by “polymerase ribozyme fitness (log ratio)” value: no more than -4.2 for the first, no more than -4.2 for the second.

First: C87U A91U A98G A138G G152A
Second: C87G G92C G126A
The “polymerase ribozyme fitness (log ratio)” value of the first is lower: no more than -4.2 for the first, 0.48 for the second.

First: A89G G94A G100C
Second: A89U G143U
The “polymerase ribozyme fitness (log ratio)” value of the first is lower: no more than -4.2 for the first, -2.38 for the second.

C87A C93U C95U G100A C116U A121G C129A U130G and A91U C95G C116A G143U A147C cannot be ordered by “polymerase ribozyme fitness (log ratio)” value: no more than -4.2 for the first, no more than -4.2 for the second.

Compared with C87U A98G A106G, A91G U139G is lower in “polymerase ribozyme fitness (log ratio)” value: -1.08 for the first, -3.56 for the second.

A91G C93U and G86U G140U are within 0.2 log units of each other in “polymerase ribozyme fitness (log ratio)” value: -3.88 for the first, -3.83 for the second.

Compared with G86U U101C C118U, A89G G92U is lower in “polymerase ribozyme fitness (log ratio)” value: -1.56 for the first, -2.48 for the second.

First: G88A A89G
Second: C87U G100U C114U
The “polymerase ribozyme fitness (log ratio)” value of the first is higher: -3.67 for the first, no more than -4.2 for the second.

C87G A142G and A89G U146G C149G are within 0.2 log units of each other in “polymerase ribozyme fitness (log ratio)” value: -4.14 for the first, -4.1 for the second.

A89U A142C U146C A150U and G88A G136A are within 0.2 log units of each other in “polymerase ribozyme fitness (log ratio)” value: -3.99 for the first, -3.83 for the second.

G86U G88C A119C U127A U144G and C87G C105G cannot be ordered by “polymerase ribozyme fitness (log ratio)” value: no more than -4.2 for the first, no more than -4.2 for the second.

Compared with G88U C149U, A91G G112C is higher in “polymerase ribozyme fitness (log ratio)” value: no more than -4.2 for the first, -3.76 for the second.

U90A A91C U102G U151G and A91C C96A G126A cannot be ordered by “polymerase ribozyme fitness (log ratio)” value: no more than -4.2 for the first, no more than -4.2 for the second.

Going from C87A A106U to C87A A89U C129G, the “polymerase ribozyme fitness (log ratio)” value falls from -4.18 to no more than -4.2.

Compared with A89C C103A, G86U C105A is lower in “polymerase ribozyme fitness (log ratio)” value: -2.11 for the first, -2.68 for the second.

A91U G92U C132A and G86U C149A cannot be ordered by “polymerase ribozyme fitness (log ratio)” value: no more than -4.2 for the first, no more than -4.2 for the second.

First: A89C G94C
Second: C87A C105U A107U
The “polymerase ribozyme fitness (log ratio)” value of the first is higher: -1.57 for the first, no more than -4.2 for the second.

Compared with C87U A106G U139C, G88C U101C A113C U139G is lower in “polymerase ribozyme fitness (log ratio)” value: -3.59 for the first, no more than -4.2 for the second.

A91C A115C and U90C U127C cannot be ordered by “polymerase ribozyme fitness (log ratio)” value: no more than -4.2 for the first, no more than -4.2 for the second.

Going from C87G U134A to A89U C93U, the “polymerase ribozyme fitness (log ratio)” value rises from no more than -4.2 to -1.6.

Compared with A89U C93G, C87U G133U is higher in “polymerase ribozyme fitness (log ratio)” value: -3.68 for the first, -2.95 for the second.

U90C G94U G124A C125U and A89U G92C G94U G141A are within 0.2 log units of each other in “polymerase ribozyme fitness (log ratio)” value: -4 for the first, -3.94 for the second.

First: C87U A115U
Second: A89U A91U
The “polymerase ribozyme fitness (log ratio)” value of the first is higher: -1.73 for the first, no more than -4.2 for the second.

G88C A137U G143A and A91U C99G cannot be ordered by “polymerase ribozyme fitness (log ratio)” value: no more than -4.2 for the first, no more than -4.2 for the second.

For C87U A115U G140U, the “polymerase ribozyme fitness (log ratio)” value was -4.19.
